Data published in patent publication US20240417436A1.
One block for each binder: values may come before it. Bridges are numbered along the chain shown (N, C = ends). Primed or numbered codes have the meaning given here. [ ]: non-standard residue; d: D form. Yn3(5) = tyrosine residue modified with an azide-capped PEG9 group (O-(PEG9-azido)-tyrosine); Ygp(5) = O-(8x polyethylene glycol-amino)-tyrosine (Tyr-PEG8-amine); Ygp = O-(8x polyethylene glycol-amino)-tyrosine; Yn3 = O-(9x polyethylene glycol-azido)-tyrosine; PEG9′ = polyethylene glycol spacer of 9 units; 4x polyethylene glycol = not defined here; hSer = N[C@@H](CCO)C(=O)O; Nle = CCCC[C@H](N)C(=O)O

Key:
[1] = target: IL-2 receptor βγ complex on human cells (pan T cells, PBMC NK cells, NK92 PD1+ cells) (human) (UniProt P14784); assay: cell-based or functional assay
[2] = target: IL-2 receptor βγ complex (CD122/CD132) on HEK-Blue IL-2Rβγ reporter cells (UniProt P14784); assay: cell-based or functional assay
Chain of IL-2 receptor βγ complex (CD122/CD132) on HEK-Blue IL-2Rβγ reporter cells (P14784 27-551 limits assumed, chain 1 of 2): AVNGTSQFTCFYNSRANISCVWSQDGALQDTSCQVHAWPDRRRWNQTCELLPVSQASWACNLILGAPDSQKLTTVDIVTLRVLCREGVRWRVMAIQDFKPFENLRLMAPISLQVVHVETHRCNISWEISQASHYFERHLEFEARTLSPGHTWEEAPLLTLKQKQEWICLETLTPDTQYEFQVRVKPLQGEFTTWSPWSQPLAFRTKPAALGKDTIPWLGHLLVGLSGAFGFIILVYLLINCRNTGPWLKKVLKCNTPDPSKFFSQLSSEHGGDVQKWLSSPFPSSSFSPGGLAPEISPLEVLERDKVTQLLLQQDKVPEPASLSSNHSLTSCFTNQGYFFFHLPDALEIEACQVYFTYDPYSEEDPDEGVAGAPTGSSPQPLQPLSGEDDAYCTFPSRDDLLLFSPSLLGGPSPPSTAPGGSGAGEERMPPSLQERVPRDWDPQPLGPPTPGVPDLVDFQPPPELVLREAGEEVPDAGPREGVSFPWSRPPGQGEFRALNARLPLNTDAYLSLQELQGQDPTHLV
Chain of IL-2 receptor βγ complex (CD122/CD132) on HEK-Blue IL-2Rβγ reporter cells (P31785 23-369 limits assumed, chain 2 of 2, further chain): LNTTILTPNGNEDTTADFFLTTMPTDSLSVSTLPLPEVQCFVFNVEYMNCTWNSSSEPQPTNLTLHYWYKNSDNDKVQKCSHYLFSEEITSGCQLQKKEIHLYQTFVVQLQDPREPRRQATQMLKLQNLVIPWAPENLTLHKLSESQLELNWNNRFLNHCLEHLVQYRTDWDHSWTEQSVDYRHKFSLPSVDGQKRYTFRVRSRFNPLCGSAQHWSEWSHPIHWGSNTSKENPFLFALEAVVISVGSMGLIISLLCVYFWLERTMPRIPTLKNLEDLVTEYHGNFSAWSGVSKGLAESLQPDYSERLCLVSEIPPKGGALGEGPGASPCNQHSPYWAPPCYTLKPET

Chain of IL-2 receptor βγ complex on human cells (pan T cells, PBMC NK cells, NK92 PD1+ cells) (human) (P14784 27-551, chain 1 of 2): as the sequence (P14784 27-551 limits assumed, chain 1 of 2) above
Chain of IL-2 receptor βγ complex on human cells (pan T cells, PBMC NK cells, NK92 PD1+ cells) (human) (P31785 23-369, chain 2 of 2, further chain): as the sequence (P31785 23-369 limits assumed, chain 2 of 2, further chain) above

Average EC50, pSTAT5 assay in NK cells [1]: 2.94 nM
Average EC50, HEK-Blue IL-2R (CD122+, CD132+) reporter assay [2]: 0.181 nM
B1: CMP-321, MMP2 cleaved molecule (ligand)
chain: SGRVQPLVDAPTSSSTKKTQLQLEHLLLDLQEILNGINNYKNPKLTR[Nle]L[hSer][Yn3(5)]KF[Ygp(5)][Nle]PKKATELKHLQCLEEELKPLEEVL[hSer]LAQSKNFHLRPRDLISNINVIVLELKGSETTF[hSer]CEYADETATIVEFLNRWITFSQSIISTLT
modifications: lactam N-32; also: treated with MMP2 (cleavage site not given here)

Average EC50, pSTAT5 assay in NK cells [1]: 0.713 nM
Average EC50, HEK-Blue IL-2R (CD122+, CD132+) reporter assay [2]: 0.049 nM
B2: CMP-319, MMP2 cleaved molecule (ligand)
chain: RGRRVANLVGAPTSSSTKKTQLQLEHLLLDLQEILNGINNYKNPKLTR[Nle]L[hSer][Yn3(5)]KF[Ygp(5)][Nle]PKKATELKHLQCLEEELKPLEEVL[hSer]LAQSKNFHLRPRDLISNINVIVLELKGSETTF[hSer]CEYADETATIVEFLNRWITFSQSIISTLT
modifications: lactam N-33; also: treated with MMP2 (cleavage site not given here)

Average EC50, pSTAT5 assay in NK cells [1]: 37.4 nM
Average EC50, HEK-Blue IL-2R (CD122+, CD132+) reporter assay [2]: 3.37 nM
B3: CMP-318 (ligand)
chain: SGRVANLVGAPTSSSTKKTQLQLEHLLLDLQEILNGINNYKNPKLTR[Nle]L[hSer][Yn3]KF[Ygp][Nle]PKKATELKHLQCLEEELKPLEEVL[hSer]LAQSKNFHLRPRDLISNINVIVLELKGSETTF[hSer]CEYADETATIVEFLNRWITFSQSIISTLT
modifications: lactam N-32

Average EC50, pSTAT5 assay in NK cells [1]: 65.2 nM
Average EC50, HEK-Blue IL-2R (CD122+, CD132+) reporter assay [2]: 4.22 nM
B4: CMP-321, Matriptase cleaved molecule (ligand)
chain: SGRVQPLVDAPTSSSTKKTQLQLEHLLLDLQEILNGINNYKNPKLTR[Nle]L[hSer][Yn3(5)]KF[Ygp(5)][Nle]PKKATELKHLQCLEEELKPLEEVL[hSer]LAQSKNFHLRPRDLISNINVIVLELKGSETTF[hSer]CEYADETATIVEFLNRWITFSQSIISTLT
modifications: lactam N-32; also: treated with matriptase (cleavage site not given here)

Average EC50, HEK-Blue IL-2R (CD122+, CD132+) reporter assay [2]: 0.106 nM
B5: CMP-154 (ligand)
chain: PLGLAGAPTSSSTKKTQLQLEHLLLDLQ[Nle]ILNGIENYKNPKLTR[Nle]L[hSer][Yn3]KF[Ygp][Nle]PKKATELKHLQCLEEELKPLEEVL[hSer]LAQSKNFHLRPRDLISNINVIVLELKGSETTF[hSer]CEYADETATIVEFLNRWITFSQSIISTLT
modifications: linker N-35 via 9x polyethylene glycol

Average EC50, HEK-Blue IL-2R (CD122+, CD132+) reporter assay [2]: 0.521 nM
B6: CMP-303 (ligand)
chain: PLGLAGAPTSSSTKKTQLQLEHLLLDLQEILNGINNYKNPKLTR[Nle]L[hSer][Yn3]KF[Ygp][Nle]PKKATELKHLQCLEEELKPLEEVL[hSer]LAQSKNFHLRPRDLISNINVIVLELKGSETTF[hSer]CEYADETATIVEFLNRWITFSQSIISTLT
modifications: linker (positions not given here) via 4x polyethylene glycol; not fully specified (bridges); reading uncertain; also: ring may run through the N-terminus of residue 1, not given here

Average EC50, HEK-Blue IL-2R (CD122+, CD132+) reporter assay [2]: 0.168 nM
B7: CMP-161 (ligand)
chain: PLGLAGAPTSSSTKKTQLQLEHLLLDLQ[Nle]ILEGINNYKNPKLTR[Nle]L[hSer][Yn3]KF[Ygp][Nle]PKKATELKHLQCLEEELKPLEEVL[hSer]LAQSKNFHLRPRDLISNINVIVLELKGSETTF[hSer]CEYADETATIVEFLNRWITFSQSIISTLT
modifications: bridge N-32; not fully specified (bridges)

Average EC50, HEK-Blue IL-2R (CD122+, CD132+) reporter assay [2]: 0.436 nM
B8: CMP-302 (ligand)
chain: GPLGLAGAPTSSSTKKTQLQLEHLLLDLQEILNGINNYKNPKLTR[Nle]L[hSer][Yn3]KF[Ygp][Nle]PKKATELKHLQCLEEELKPLEEVL[hSer]LAQSKNFHLRPRDLISNINVIVLELKGSETTF[hSer]CEYADETATIVEFLNRWITFSQSIISTLT
modifications: lactam N-30

Average EC50, HEK-Blue IL-2R (CD122+, CD132+) reporter assay [2]: 0.192 nM
B9: CMP-159 (ligand)
chain: PLGLAGAPTSSSTKKTQLQLEHLLLDLE[Nle]ILNGINNYKNPKLTR[Nle]L[hSer][Yn3]KF[Ygp][Nle]PKKATELKHLQCLEEELKPLEEVL[hSer]LAQSKNFHLRPRDLISNINVIVLELKGSETTF[hSer]CEYADETATIVEFLNRWITFSQSIISTLT
modifications: linker N-28 via 4x polyethylene glycol; reading uncertain

Average EC50, HEK-Blue IL-2R (CD122+, CD132+) reporter assay [2]: 0.0597 nM
B10: CMP-152 (ligand)
chain: PLGLAGAPTSSSTKKTQLQLEHLLLDLQ[Nle]ILNGINNYKNPKLTR[Nle]L[hSer][Yn3]KF[Ygp][Nle]PKKATELKHLQCLEEELKPLEEVL[hSer]LAQSKNFHLRPRDLISNINVIVLELKGSETTF[hSer]CEYADETATIVEFLNRWITFSQSIISTLT
modifications: linker N-38 via 1,5‑pentanedioic acid‑9x polyethylene glycol linker

Average EC50, pSTAT5 assay in NK cells [1]: 15.7 nM
Average EC50, HEK-Blue IL-2R (CD122+, CD132+) reporter assay [2]: 10.8 nM
B11: CMP-320, Matriptase cleaved molecule (ligand)
chain: SGRVAPQPLVDAPTSSSTKKTQLQLEHLLLDLQEILNGINNYKNPKLTR[Nle]L[hSer][Yn3(5)]KF[Ygp(5)][Nle]PKKATELKHLQCLEEELKPLEEVL[hSer]LAQSKNFHLRPRDLISNINVIVLELKGSETTF[hSer]CEYADETATIVEFLNRWITFSQSIISTLT
modifications: lactam N-34; also: treated with matriptase (cleavage site not given here)

Average EC50, pSTAT5 assay in NK cells [1]: 33.7 nM
Average EC50, HEK-Blue IL-2R (CD122+, CD132+) reporter assay [2]: 2.47 nM
B12: CMP-318, Matriptase cleaved molecule (ligand)
chain: SGRVANLVGAPTSSSTKKTQLQLEHLLLDLQEILNGINNYKNPKLTR[Nle]L[hSer][Yn3(5)]KF[Ygp(5)][Nle]PKKATELKHLQCLEEELKPLEEVL[hSer]LAQSKNFHLRPRDLISNINVIVLELKGSETTF[hSer]CEYADETATIVEFLNRWITFSQSIISTLT
modifications: lactam N-32; also: treated with matriptase, cleavage site not given here

Average EC50, HEK-Blue IL-2R (CD122+, CD132+) reporter assay [2]: 0.34 nM
B13: CMP-304 (ligand)
chain: PLGLAGAPTSSSTKKTQLQLEHLLLDLQEILNGINNYKNPKLTR[Nle]L[hSer][Yn3]KF[Ygp][Nle]PKKATELKHLQCLEEELKPLEEVL[hSer]LAQSKNFHLRPRDLISNINVIVLELKGSETTF[hSer]CEYADETATIVEFLNRWITFSQSIISTLT
modifications: bridge N-29 via PEG9′

Average EC50, pSTAT5 assay in NK cells [1]: 0.388 nM
Average EC50, HEK-Blue IL-2R (CD122+, CD132+) reporter assay [2]: 0.0259 nM
B14: CMP-318, MMP2 cleaved molecule (ligand)
chain: SGRVANLVGAPTSSSTKKTQLQLEHLLLDLQEILNGINNYKNPKLTR[Nle]L[hSer][Yn3]KF[Ygp][Nle]PKKATELKHLQCLEEELKPLEEVL[hSer]LAQSKNFHLRPRDLISNINVIVLELKGSETTF[hSer]CEYADETATIVEFLNRWITFSQSIISTLT
modifications: not fully specified (bridges)

Average EC50, pSTAT5 assay in NK cells [1]: 7.72 nM
Average EC50, HEK-Blue IL-2R (CD122+, CD132+) reporter assay [2]: 1.05 nM
B15: CMP-319 (ligand)
chain: RGRRVANLVGAPTSSSTKKTQLQLEHLLLDLQEILNGINNYKNPKLTR[Nle]L[hSer][Yn3(5)]KF[Ygp(5)][Nle]PKKATELKHLQCLEEELKPLEEVL[hSer]LAQSKNFHLRPRDLISNINVIVLELKGSETTF[hSer]CEYADETATIVEFLNRWITFSQSIISTLT
modifications: lactam N-33

Average EC50, pSTAT5 assay in NK cells [1]: 55.1 nM
Average EC50, HEK-Blue IL-2R (CD122+, CD132+) reporter assay [2]: 4.2 nM
B16: CMP-321 (ligand)
chain: SGRVQPLVDAPTSSSTKKTQLQLEHLLLDLQEILNGINNYKNPKLTR[Nle]L[hSer][Yn3(5)]KF[Ygp(5)][Nle]PKKATELKHLQCLEEELKPLEEVL[hSer]LAQSKNFHLRPRDLISNINVIVLELKGSETTF[hSer]CEYADETATIVEFLNRWITFSQSIISTLT
modifications: lactam N-32

Average EC50, pSTAT5 assay in NK cells [1]: 0.571 nM
Average EC50, HEK-Blue IL-2R (CD122+, CD132+) reporter assay [2]: 0.0392 nM
B17: CMP-320, MMP2 cleaved molecule (ligand)
chain: SGRVAPQPLVDAPTSSSTKKTQLQLEHLLLDLQEILNGINNYKNPKLTR[Nle]L[hSer][Yn3(5)]KF[Ygp(5)][Nle]PKKATELKHLQCLEEELKPLEEVL[hSer]LAQSKNFHLRPRDLISNINVIVLELKGSETTF[hSer]CEYADETATIVEFLNRWITFSQSIISTLT
modifications: lactam N-34; also: treated with MMP2 (cleavage site not given here)

Average EC50, pSTAT5 assay in NK cells [1]: 13.2 nM
Average EC50, HEK-Blue IL-2R (CD122+, CD132+) reporter assay [2]: 0.775 nM
B18: CMP-320 (ligand)
chain: SGRVAPQPLVDAPTSSSTKKTQLQLEHLLLDLQEILNGINNYKNPKLTR[Nle]L[hSer][Yn3(5)]KF[Ygp(5)][Nle]PKKATELKHLQCLEEELKPLEEVL[hSer]LAQSKNFHLRPRDLISNINVIVLELKGSETTF[hSer]CEYADETATIVEFLNRWITFSQSIISTLT
modifications: lactam N-34

Average EC50, pSTAT5 assay in NK cells [1]: 0.804 nM
Average EC50, HEK-Blue IL-2R (CD122+, CD132+) reporter assay [2]: 0.0507 nM
B19: CMP-319, Matriptase cleaved molecule (ligand)
chain: RGRRVANLVGAPTSSSTKKTQLQLEHLLLDLQEILNGINNYKNPKLTR[Nle]L[hSer][Yn3(5)]KF[Ygp(5)][Nle]PKKATELKHLQCLEEELKPLEEVL[hSer]LAQSKNFHLRPRDLISNINVIVLELKGSETTF[hSer]CEYADETATIVEFLNRWITFSQSIISTLT
modifications: lactam N-33; also: treated with matriptase (cleavage site not given here)
